The source of these data is US6991916B2, “Compounds for the treatment of sexual dysfunction” (Pfizer Inc., priority 2000, dated 2006).

Non-standard residues stand in square brackets, D forms with d. QSY‑7 = quencher dye attached to Cys via maleimide; Rhodamine green = fluorophore at the N-terminus; βAla = NCCC(=O)O

The target of one series is T1, human SEP (Homo sapiens, UniProt Q495T6).
T1 construct: with the full length cDNA cloned into the pCMV6-XL4 vector; made in house; host or cells: CHO cells, transient transfection; dialysed culture medium
T1 sequence (Q495T6 75-779 limits assumed): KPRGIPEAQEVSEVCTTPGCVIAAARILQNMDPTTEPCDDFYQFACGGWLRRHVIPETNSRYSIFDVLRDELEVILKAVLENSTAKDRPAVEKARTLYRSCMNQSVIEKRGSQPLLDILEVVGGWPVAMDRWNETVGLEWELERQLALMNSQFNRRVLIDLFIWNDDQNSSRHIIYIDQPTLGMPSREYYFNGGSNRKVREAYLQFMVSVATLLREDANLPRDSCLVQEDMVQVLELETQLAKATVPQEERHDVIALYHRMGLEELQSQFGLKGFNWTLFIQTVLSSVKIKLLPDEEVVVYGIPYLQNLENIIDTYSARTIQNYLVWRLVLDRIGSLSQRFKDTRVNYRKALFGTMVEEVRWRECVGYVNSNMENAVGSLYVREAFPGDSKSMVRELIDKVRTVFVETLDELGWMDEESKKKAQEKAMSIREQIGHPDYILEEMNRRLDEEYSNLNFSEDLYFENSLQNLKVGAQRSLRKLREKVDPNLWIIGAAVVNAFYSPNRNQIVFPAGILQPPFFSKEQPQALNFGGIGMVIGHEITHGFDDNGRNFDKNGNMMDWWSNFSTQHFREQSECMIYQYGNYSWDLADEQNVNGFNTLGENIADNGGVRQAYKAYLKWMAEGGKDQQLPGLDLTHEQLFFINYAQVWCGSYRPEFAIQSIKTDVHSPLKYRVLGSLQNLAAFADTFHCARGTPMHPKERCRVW
Kind of series: Sensitivity of human SEP to inhibitors. In kind it is biochemical. The protocol: The enzymatic (proteolytic) activity of human SEP protein can be measured in an assay involving, for example, mixing a sample of the human SEP enzyme with a substrate peptide in a buffer solution (for example 50 mM HEPES; pH 7.4), incubating the mixture for a period of time (such as 1-3 hours) enough for human SEP to act to cleave a measurable portion of the peptide substrate to a product at a temperature suitable for SEP activity (typically 30-37° C.).
The effect of candidate human SEP inhibitor compounds or control test compounds such as phosphoramidon and thiorphan that may alter the activity of human SEP can be measured in this type of assay by including them in the initial mixture at a range of suitable test concentrations, typically 0.1 nM to 50 µM.
To determine the IC50 of SEP inhibitors (SEPi; for example, phosphoramidon), multiple SEP assays are performed as described above with a range of test concentrations of inhibitor included in the 50 μl of DMSO solution (made by appropriate dilution of a 10 mM 100% DMSO stock of inhibitor with 4% DMSO/50 mM HEPES pH7.4.). Using a suitable standard graph fitting computer program, a sigmoidal dose response curve is fitted to a plot of log inhibitor concentration versus MaxV (or % inhibition or % activity). The IC50 is calculated as the inhibitor concentration causing 50% maximal inhibition. […]

The target of another series is T2, mouse SEP (Mus musculus, UniProt Q9JLI3).
T2 sequence (Q9JLI3 1-765): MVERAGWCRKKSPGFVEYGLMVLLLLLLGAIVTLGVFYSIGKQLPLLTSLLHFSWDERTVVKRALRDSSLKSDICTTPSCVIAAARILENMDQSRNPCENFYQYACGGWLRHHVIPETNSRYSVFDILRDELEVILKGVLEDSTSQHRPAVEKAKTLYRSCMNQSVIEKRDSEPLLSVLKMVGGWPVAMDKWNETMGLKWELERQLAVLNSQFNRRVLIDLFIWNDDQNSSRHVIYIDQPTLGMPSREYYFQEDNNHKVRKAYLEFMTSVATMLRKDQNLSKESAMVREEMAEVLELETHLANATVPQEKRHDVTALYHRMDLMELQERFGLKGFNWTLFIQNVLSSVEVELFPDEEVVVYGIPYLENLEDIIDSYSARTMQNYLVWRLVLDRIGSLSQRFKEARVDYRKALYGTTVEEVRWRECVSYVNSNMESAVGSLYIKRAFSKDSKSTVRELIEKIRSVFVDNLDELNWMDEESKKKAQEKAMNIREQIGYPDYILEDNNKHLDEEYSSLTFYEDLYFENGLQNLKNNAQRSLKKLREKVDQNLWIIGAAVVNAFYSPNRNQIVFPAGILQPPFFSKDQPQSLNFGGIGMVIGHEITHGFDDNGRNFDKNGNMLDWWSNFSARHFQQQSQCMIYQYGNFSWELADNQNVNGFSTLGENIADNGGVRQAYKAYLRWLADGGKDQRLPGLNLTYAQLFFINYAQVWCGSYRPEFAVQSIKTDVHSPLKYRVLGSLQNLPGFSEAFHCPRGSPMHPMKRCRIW
As to conditions: cited from earlier work.

A further series has as its target T3, NEP enzyme (Homo sapiens, UniProt P08473).
T3 construct: made in house; host or cells: Pichia pastoris
Kind of series: NEP FRET assay (384 well, substrate CP4). As to conditions: steady state kinetics of NEP with the peptide substrate. Type of series: biochemical.

For series [1], the target named is T4, Rhodamine green-Gly-Gly-dPhe-Leu-Arg-Arg-Val-Cys(QSY-7)-betaAla-NH2.
T4 chain: GGFLRRVCA

T3 sequence (P08473 whole entry): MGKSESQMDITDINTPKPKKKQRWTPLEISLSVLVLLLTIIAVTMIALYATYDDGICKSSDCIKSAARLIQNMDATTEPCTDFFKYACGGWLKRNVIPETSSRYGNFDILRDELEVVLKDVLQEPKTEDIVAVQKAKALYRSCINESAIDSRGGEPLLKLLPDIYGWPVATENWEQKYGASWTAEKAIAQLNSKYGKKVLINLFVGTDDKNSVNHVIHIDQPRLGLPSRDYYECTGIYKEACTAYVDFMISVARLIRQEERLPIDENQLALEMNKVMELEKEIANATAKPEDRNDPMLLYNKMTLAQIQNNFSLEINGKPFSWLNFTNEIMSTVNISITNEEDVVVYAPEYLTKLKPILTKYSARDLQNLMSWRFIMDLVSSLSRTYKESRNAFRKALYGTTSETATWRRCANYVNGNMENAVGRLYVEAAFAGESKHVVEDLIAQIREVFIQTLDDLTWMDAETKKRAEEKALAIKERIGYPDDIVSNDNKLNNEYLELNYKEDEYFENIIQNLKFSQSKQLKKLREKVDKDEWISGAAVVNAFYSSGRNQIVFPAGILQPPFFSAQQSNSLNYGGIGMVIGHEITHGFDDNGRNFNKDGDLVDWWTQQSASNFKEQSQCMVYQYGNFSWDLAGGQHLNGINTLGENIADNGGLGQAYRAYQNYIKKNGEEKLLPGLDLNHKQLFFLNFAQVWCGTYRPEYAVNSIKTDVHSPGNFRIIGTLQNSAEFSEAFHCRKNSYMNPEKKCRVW

With `CC(C)C[C@H](NP(=O)(O)O[C@@H]1O[C@@H](C)[C@H](O)[C@@H](O)[C@H]1O)C(=O)N[C@@H](Cc1c[nH]c2ccccc12)C(=O)O` [phosphoramidon], the “sensitivity of enzyme to inhibitor” value on human SEP and at mouse SEP was “sensitive” in each case.

`O=C(O)CNC(=O)C(CS)Cc1ccccc1` (stereo not drawn) [thiorphan]: the “sensitivity of enzyme to inhibitor” value at human SEP and on mouse SEP was “sensitive” throughout.

In the series with NEP enzyme, “Rhodamine green-Gly-Gly-dPhe-Leu-Arg-Arg-Val-Cys(QSY™-7)-βAla-NH2 ({Rhodamine green}-GG[dF]LRRVC(QSY‑7)[βAla]-NH2) [CP4]” displayed a Kcat of 5 min⁻¹. The Km with NEP enzyme (recombinant human enzyme, 50 mM Hepes pH 8, 25° C.) came out at 8 µM.

B1: Recombinant human NEP (neutral endopeptidase) enzyme (protein)
chain: YDDGICKSSDCIKSAARLIQNMDATTEPCTDFFKYACGGWLKRNVIPETSSRYGNFDILRDELEVVLKDVLQEPKTEDIVAVQKAKALYRSCINESAIDSRGGEPLLKLLPDIYGWPVATENWEQKYGASWTAEKAIAQLNSKYGKKVLINLFVGTDDKNSVNHVIHIDQPRLGLPSRDYYECTGIYKEACTAYVDFMISVARLIRQEERLPIDENQLALEMNKVMELEKEIANATAKPEDRNDPMLLYNKMTLAQIQNNFSLEINGKPFSWLNFTNEIMSTVNISITNEEDVVVYAPEYLTKLKPILTKYSARDLQNLMSWRFIMDLVSSLSRTYKESRNAFRKALYGTTSETATWRRCANYVNGNMENAVGRLYVEAAFAGESKHVVEDLIAQIREVFIQTLDDLTWMDAETKKRAEEKALAIKERIGYPDDIVSNDNKLNNEYLELNYKEDEYFENIIQNLKFSQSKQLKKLREKVDKDEWISGAAVVNAFYSSGRNQIVFPAGILQPPFFSAQQSNSLNYGGIGMVIGHEITHGFDDNGRNFNKDGDLVDWWTQQSASNFKEQSQCMVYQYGNFSWDLAGGQHLNGINTLGENIADNGGLGQAYRAYQNYIKKNGEEKLLPGLDLNHKQLFFLNFAQVWCGTYRPEYAVNSIKTDVHSPGNFRIIGTLQNSAEFSEAFHCRKNSYMNPEKKCRVW
With B1, in series [1], the Kcat stood at 5 min⁻¹, the Kcat/Km is reported as 10,500 M^-1 S^-1 and the Km is listed as 8 µM.
